From patent US20250290928A1, “METHOD, KIT AND DEVICE FOR DETECTING EXTRACELLULAR VESICLES” (priority 2022, published 2025)
No end group written: not given here. *: point of attachment. 5FAM = O=C1OC2(c3ccc(O)cc3Oc3cc(O)ccc32)c2ccc(C(=O)*)cc21; TQ2 = quencher; TQ3 = quencher

Target: T1, MMP14 in the MDA-MB-231-derived extracellular vesicles (Homo sapiens, UniProt P50281)
T1 construct: in terms of intact MMP14 with a molecular weight of 70 kDa
Assay: Digital detection through MMP14 activity of MDA-MB-231-derived extracellular vesicles captured on Tim4-immobilized magnetic particles
Assay type: biochemical
Method: Magnetic particles included in PS Capture (trademark) Exosome Flow Cytometry Kit (manufactured by FUJIFILM Corporation) were used as magnetic particles. In this kit, binding of an extracellular vesicle to a Tim4-immobilized magnetic particle is utilized.
800 μL of Exosome Capture Beads were aliquoted in a 1.5 mL microtube, vortexed for 5 seconds, spun down in a benchtop centrifuge, and then placed on a magnetic stand. After still standing for 1 minute, the supernatant was removed by pipetting. 1 mL of x1 WB (+Enhancer) prepared from x10 Washing Buffer and x100 Exosome Binding Enhancer included in the kit was added to the residue, the mixture was vortexed for 5 seconds, spun down in a benchtop centrifuge, and then placed on a magnetic stand. After still standing for 1 minute, the supernatant was removed by pipetting. This operation was repeated three times.
800 μL of the buffer (4) was added to the magnetic particle pellets, and the mixture was vortexed for 30 seconds to provide a homogeneous magnetic particle suspension. 60 μL of the suspension was aliquoted into each of twelve 1.5 mL microtubes.
The concentration of the solution is 4 μg/mL. […] Further, the concentration of the x1/5 solution was set to be the highest concentration, and 10-fold dilution was performed in four stages. Thus, 10-fold dilution samples in a total of five stages were obtained.
The magnetic particle suspension that had been aliquoted in each amount of 60 μL in the section “(Preparation of Particles)” was vortexed for 5 seconds, spun down in a benchtop centrifuge, and then placed on a magnetic stand. After still standing for 1 minute, the supernatant was removed by pipetting.
After that, the above-mentioned mixed solution was spun down in a benchtop centrifuge, then placed on a magnetic stand, and left to stand still for 1 minute. After that, the supernatant was removed by pipetting, 300 μL of the buffer (4) was added to the residue, and the mixture was vortexed for 5 seconds. The mixture was spun down in a benchtop centrifuge, then placed on a magnetic stand, and left to stand still for 1 minute. The same operation was further repeated twice.
For detection of MMP14 activity, 1 mM Custom #1 and Custom #2 were diluted with the buffer (4) to prepare MMP14 detection solutions containing 5 μM Custom #1 and Custom #2, respectively.
The supernatant of the mixed solution of the magnetic particles and the extracellular vesicles subjected to the washing was removed by pipetting, and 60 μL of each of the MMP14 detection solutions was added to each of the magnetic particle pellets to prepare a reaction solution for wells.
Magnosphere (trademark) MS300/Streptavidin (manufactured by JSR Corporation) (hereinafter abbreviated as “MS300S”) was used as magnetic particles. The magnetic particles were modified with Tim4 through use of Biotin-labeled Exosome Capture included in MagCapture (trademark) Exosome Isolation Kit PS Ver. 2 (manufactured by FUJIFILM Corporation) (hereinafter abbreviated as “PS2”) to prepare Tim4-immobilized magnetic particles.
10 μL of Biotin-labeled Exosome Capture was added to the suspension, and the mixture was vortexed for 5 seconds so that the contents were mixed. The mixture was subjected to a reaction for 10 minutes while the contents were mixed by inversion at room temperature with a rotator. After that, the resultant was spun down in a benchtop centrifuge, and then placed on a magnetic stand. After still standing for 1 minute, the supernatant was removed by pipetting. 500 μL of x1 I/WB (±Enhancer) was added to the residue, and the mixture was vortexed for 5 seconds, spun down in a benchtop centrifuge, and then placed on a magnetic stand. After still standing for 1 minute, the supernatant was removed by pipetting. This operation was further repeated twice. […]

[1] = Table 56, Particle MS300C, MB231 Present, 24 hours at 23° C.
[2] = Table 56, Particle Simoa, MB231 Present, 24 hours at 23° C.
[3] = Example 49, PS Capture Tim4 particles, 30° C., 4 h
[4] = Example 50, MS300S Tim4 particles, 30° C., 4 h
[5] = Table 52, particles modified with Tim4, MB231 concentration x1/5, 4 hr
[6] = Table 52, particles modified with Tim4, MB231 concentration x1/50, 4 hr
[7] = Table 52, particles modified with Tim4, MB231 concentration x1/500, 4 hr
[8] = Table 52, particles modified with Tim4, MB231 concentration x1/5,000, 4 hr
[9] = Table 52, particles modified with Tim4, MB231 concentration x1/50,000, 4 hr
[10] = Table 53, BG subtracted, MB231 concentration x1/5, 4 hr
[11] = Table 53, BG subtracted, MB231 concentration x1/50, 4 hr
[12] = Table 53, BG subtracted, MB231 concentration x1/500, 4 hr
[13] = Table 53, BG subtracted, MB231 concentration x1/5,000, 4 hr
[14] = Table 53, BG subtracted, MB231 concentration x1/50,000, 4 hr
[15] = Table 54, particles immobilized with Tim4, MB231 concentration x1/5, 4 hr
[16] = Table 54, particles immobilized with Tim4, MB231 concentration x1/25, 4 hr
[17] = Table 54, particles immobilized with Tim4, MB231 concentration x1/125, 4 hr
[18] = Table 54, particles immobilized with Tim4, MB231 concentration x1/625, 4 hr
[19] = Table 54, particles immobilized with Tim4, MB231 concentration x1/3,125, 4 hr
[20] = Table 54, particles immobilized with Tim4, MB231 concentration x1/15,625, 4 hr
[21] = Table 54, particles immobilized with Tim4, MB231 concentration x1, 4 hr
[22] = Table 55, BG subtracted, MB231 concentration x1/5, 4 hr
[23] = Table 55, BG subtracted, MB231 concentration x1/25, 4 hr
[24] = Table 55, BG subtracted, MB231 concentration x1/125, 4 hr
[25] = Table 55, BG subtracted, MB231 concentration x1/625, 4 hr
[26] = Table 55, BG subtracted, MB231 concentration x1/3,125, 4 hr
[27] = Table 55, BG subtracted, MB231 concentration x1/15,625, 4 hr
[28] = Table 55, BG subtracted, MB231 concentration x1, 4 hr
[29] = Table 53, BG subtracted, MB231 concentration x1, 4 hr

TAMRA-GGPLGLAGGK(TQ3) ({TAMRA}-GGPLGLAGGK(TQ3)) [Custom #2T]
Particle Expected value λ [1]: 0.2937
Particle Positive ratio [1]: 0.2545
Particle Expected value λ [2]: 0.07748
Particle Positive ratio [2]: 0.07456

[5-FAM]GGPLGLAGGK(TQ2)[OH] (5FAM-GGPLGLAGGK(TQ2)-OH) [Custom #2]
number of the extracellular vesicles [3]: 1.18×10^5 /μg of protein
number of the extracellular vesicles (Example 50, 6×10^5 particles, 2 μg of protein): 1.77×10^5
expected value Δλ per particle (value obtained by subtracting BG) at a concentration of x1 [4]: 0.2953
number of the extracellular vesicles [4]: 8.86×10^4 /μg of protein
Particle Expected value λ [5]: 0.2744
Particle Number of positives [5]: 557
Particle Positive ratio [5]: 0.24
Particle Expected value λ [6]: 0.09639
Particle Number of positives [6]: 246
Particle Positive ratio [6]: 0.09189
Particle Expected value λ [7]: 0.03784
Particle Number of positives [7]: 181
Particle Positive ratio [7]: 0.03714
Particle Expected value λ [8]: 0.01211
Particle Number of positives [8]: 37
Particle Positive ratio [8]: 0.01204
Particle Expected value λ [9]: 0.00551
Particle Number of positives [9]: 17
Particle Positive ratio [9]: 0.00549
Particle Expected value Δλ [10]: 0.2716
Particle Δ Number of positives [10]: 552
Particle Δ Positive ratio [10]: 0.2378
Particle Expected value Δλ [11]: 0.09434
Particle Δ Number of positives [11]: 241
Particle Δ Positive ratio [11]: 0.09003
Particle Expected value Δλ [12]: 0.03678
Particle Δ Number of positives [12]: 176
Particle Δ Positive ratio [12]: 0.03611
Particle Expected value Δλ [13]: 0.01047
Particle Δ Number of positives [13]: 32
Particle Δ Positive ratio [13]: 0.01041
Particle Expected value Δλ [14]: 0.00388
Particle Δ Number of positives [14]: 12
Particle Δ Positive ratio [14]: 0.00388
Particle Expected value λ [15]: 0.1892
Particle Number of positives [15]: 1,235
Particle Positive ratio [15]: 0.1723
Particle Expected value λ [16]: 0.1044
Particle Number of positives [16]: 643
Particle Positive ratio [16]: 0.09911
Particle Expected value λ [17]: 0.06097
Particle Number of positives [17]: 385
Particle Positive ratio [17]: 0.05915
Particle Expected value λ [18]: 0.03309
Particle Number of positives [18]: 225
Particle Positive ratio [18]: 0.03255
Particle Expected value λ [19]: 0.02229
Particle Number of positives [19]: 166
Particle Positive ratio [19]: 0.02204
Particle Expected value λ [20]: 0.01639
Particle Number of positives [20]: 88
Particle Positive ratio [20]: 0.01625
Particle Expected value λ [21]: 0.2912
Particle Number of positives [21]: 1,744
Particle Positive ratio [21]: 0.2526
Particle Expected value Δλ [22]: 0.1853
Particle Δ Number of positives [22]: 1,212
Particle Δ Positive ratio [22]: 0.1691
Particle Expected value Δλ [23]: 0.1004
Particle Δ Number of positives [23]: 620
Particle Δ Positive ratio [23]: 0.09556
Particle Expected value Δλ [24]: 0.05722
Particle Δ Number of positives [24]: 362
Particle Δ Positive ratio [24]: 0.05562
Particle Expected value Δλ [25]: 0.02966
Particle Δ Number of positives [25]: 202
Particle Δ Positive ratio [25]: 0.02922
Particle Expected value Δλ [26]: 0.01917
Particle Δ Number of positives [26]: 143
Particle Δ Positive ratio [26]: 0.01899
Particle Expected value Δλ [27]: 0.01208
Particle Δ Number of positives [27]: 65
Particle Δ Positive ratio [27]: 0.01201
Particle Expected value Δλ [28]: 0.2868
Particle Δ Number of positives [28]: 1,721
Particle Δ Positive ratio [28]: 0.2493
Particle Expected value λ [1]: 0.2899
Particle Positive ratio [1]: 0.2517
Particle Expected value λ [2]: 0.3046
Particle Positive ratio [2]: 0.2626

[5-FAM]GRIGFLRTAK(TQ2)[OH] (5FAM-GRIGFLRTAK(TQ2)-OH) [Custom #1]
number of the extracellular vesicles (Example 49, 6×10^5 particles, 3 μg of protein at x1): 1.04×10^6
expected value Δλ per particle (value obtained by subtracting BG) at a concentration of x1 [3]: 1.7373
number of the extracellular vesicles [3]: 3.47×10^5 /μg of protein
Particle Expected value λ [5]: 0.831
Particle Number of positives [5]: 1,240
Particle Positive ratio [5]: 0.5644
Particle Expected value λ [6]: 0.06966
Particle Number of positives [6]: 165
Particle Positive ratio [6]: 0.06729
Particle Expected value λ [7]: 0.03312
Particle Number of positives [7]: 89
Particle Positive ratio [7]: 0.03258
Particle Expected value λ [8]: 0.01344
Particle Number of positives [8]: 41
Particle Positive ratio [8]: 0.01335
Particle Expected value λ [9]: 0.01169
Particle Number of positives [9]: 30
Particle Positive ratio [9]: 0.01162
Particle Expected value Δλ [11]: 0.05749
Particle Δ Number of positives [11]: 137
Particle Δ Positive ratio [11]: 0.05587
Particle Expected value Δλ [12]: 0.02258
Particle Δ Number of positives [12]: 61
Particle Δ Positive ratio [12]: 0.02233
Particle Expected value Δλ [13]: 0.00424
Particle Δ Number of positives [13]: 13
Particle Δ Positive ratio [13]: 0.00423
Particle Expected value Δλ [14]: 0.00078
Particle Δ Number of positives [14]: 2
Particle Δ Positive ratio [14]: 0.00077
Particle Expected value Δλ [29]: 0.8022
Particle Δ Number of positives [29]: 1,212
Particle Δ Positive ratio [29]: 0.5517
